# Measured values reported in patent US20240350597A1 (UNIVERSITY COLLEGE DUBLIN, published 2024).
# B1: SerpinB3-TMP variant (other)
# chain: MNSLSEANTKFMFDLFQQFRKSKENNIFYSPISITSALGMVLLGAKDNTAQQIKKVLHFDQVTENTTGKAATYHVDRSGNVHHQFQKLLTEFNKSTDAYELKIANKLFGEKTYLFLQEYLDAIKKFYQTSVESVDFANAPEESRKKINSWVESQTNEKIKNLIPEGNIGSNTTLVLVNAIYFKGQWEKKFNKEDTKEEKFWPNKNTYKSIQMMRQYTSFHFASLEDVQAKVLEIPYKGKDLSMIVLLPNEIDGLQKLEEKLTAEKLMEWTSLQNMRETRVDLHLPRFKVEESYDLKDTLRTMGMVDIFNGDADLSGMTGSRGLVLSGVLHKAFVEVTEEGAEAAAATAVIQFRVSPTSTNEEFHCNHPFLFFIRQNKTNSILFYGRFSSP
# notes: also called SerpinB3 anti-TMPRSS2; modified SerpinB3-TMP
# What was measured:
# [1] = target: T1, Transmembrane serine protease 2 (TMPRSS2) (UniProt O15393 106-492); test: cell-based or functional assay
# [2] = target: T1, Transmembrane serine protease 2 …; test: ratio of second order inhibition rate constants, with A1AT as reference
# T1 sequence (O15393 106-492 limits assumed): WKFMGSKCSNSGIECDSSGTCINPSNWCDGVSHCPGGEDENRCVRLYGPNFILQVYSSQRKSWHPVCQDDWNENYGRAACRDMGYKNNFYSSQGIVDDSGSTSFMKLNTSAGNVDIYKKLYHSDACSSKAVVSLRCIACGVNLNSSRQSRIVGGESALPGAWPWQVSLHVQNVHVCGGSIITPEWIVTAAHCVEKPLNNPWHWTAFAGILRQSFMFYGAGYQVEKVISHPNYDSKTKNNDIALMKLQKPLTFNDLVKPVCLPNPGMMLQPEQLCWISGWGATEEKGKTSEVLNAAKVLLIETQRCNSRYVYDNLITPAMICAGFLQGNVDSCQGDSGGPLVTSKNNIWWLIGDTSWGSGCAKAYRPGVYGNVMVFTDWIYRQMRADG
binder,measurement,setting,value
B1,TMPRSS2 inhibition at a 5:1 serpin:protease ratio (residual activity on Boc-QAR-AMC after 10 min incubation),[1],92%
same,fold increase in TMPRSS2 specificity (k2) over A1AT,[2],18 fold
